The values below come from publication PMC3302164 (Science Signaling, 2010).

The target of the test is HA-PP2cA, expressed in HEK 293 cells (UniProt P67775 1-309). Description: co-IP.
HA-PP2cA, expressed in HEK 293 cells, sequence (P67775 whole entry): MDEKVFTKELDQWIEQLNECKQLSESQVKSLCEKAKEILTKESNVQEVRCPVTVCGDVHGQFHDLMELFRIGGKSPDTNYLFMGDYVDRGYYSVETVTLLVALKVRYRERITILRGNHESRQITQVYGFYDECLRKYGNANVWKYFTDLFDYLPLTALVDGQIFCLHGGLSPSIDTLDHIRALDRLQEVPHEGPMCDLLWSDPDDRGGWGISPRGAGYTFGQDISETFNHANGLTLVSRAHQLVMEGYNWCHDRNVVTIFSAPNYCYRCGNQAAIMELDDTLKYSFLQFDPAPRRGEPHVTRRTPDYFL

B1: FLAG-KAP1 (wild type), expressed in HEK 293 cells (natural protein, human, UniProt Q13263 1-835, looked up)
chain: MAASAAAASAAAASAASGSPGPGEGSAGGEKRSTAPSAAASASASAAASSPAGGGAEALELLEHCGVCRERLRPEREPRLLPCLHSACSACLGPAAPAAANSSGDGGAAGDGTVVDCPVCKQQCFSKDIVENYFMRDSGSKAATDAQDANQCCTSCEDNAPATSYCVECSEPLCETCVEAHQRVKYTKDHTVRSTGPAKSRDGERTVYCNVHKHEPLVLFCESCDTLTCRDCQLNAHKDHQYQFLEDAVRNQRKLLASLVKRLGDKHATLQKSTKEVRSSIRQVSDVQKRVQVDVKMAILQIMKELNKRGRVLVNDAQKVTEGQQERLERQHWTMTKIQKHQEHILRFASWALESDNNTALLLSKKLIYFQLHRALKMIVDPVEPHGEMKFQWDLNAWTKSAEAFGKIVAERPGTNSTGPAPMAPPRAPGPLSKQGSGSSQPMEVQEGYGFGSGDDPYSSAEPHVSGVKRSRSGEGEVSGLMRKVPRVSLERLDLDLTADSQPPVFKVFPGSTTEDYNLIVIERGAAAAATGQPGTAPAGTPGAPPLAGMAIVKEEETEAAIGAPPTATEGPETKPVLMALAEGPGAEGPRLASPSGSTSSGLEVVAPEGTSAPGGGPGTLDDSATICRVCQKPGDLVMCNQCEFCFHLDCHLPALQDVPGEEWSCSLCHVLPDLKEEDGSLSLDGADSTGVVAKLSPANQRKCERVLLALFCHEPCRPLHQLATDSTFSLDQPGGTLDLTLIRARLQEKLSPPYSSPQEFAQDVGRMFKQFNKLTEDKADVQSIIGLQRFFETRMNEAFGDTKFSAVLVEPPPMSLPGAGLSSQELSGGPGDGP
For B1, the “extent of interaction relative to that with PP1α, after doxorubicin” value is roughly 53%.
